The values below come from patent publication US20180057581A1 (MorphoSys, published 2018).

Test [1] addresses T1, Cytochrome c (cow) (cow, UniProt P62894 2-105). Briefly: MSD specificity profiling, coated protein. As to the method:
(§1) For this specificity profiling test the different proteins and controls were coated on two 384-well MSD plates with a concentration of 1 μg/ml at 4° C. over night. Plates were blocked with BSA and washed three times with PBS with 0.05% (v/v) Tween 20. Antibody samples were diluted to 100 nM and 10 nM in assay buffer (PBS with 0.5% (w/v) BSA, 0.05% (v/v) Tween 20). […] Samples and controls were incubated for three hours at room temperature. The plates were washed three times and 30 μl detection antibody (ECL-labeled anti-human Fab) were added per well and incubated for 1 h. After washing, MSD Read Buffer T with surfactant was added and electrochemiluminescence signals were detected using a Sector Imager 6000 (Meso Scale Discovery, Gaithersburg, Md., USA).

In test [2] the target is T2, Trypsinogen (cow) (cow, UniProt P00760 18-246).
T2 sequence (looked up): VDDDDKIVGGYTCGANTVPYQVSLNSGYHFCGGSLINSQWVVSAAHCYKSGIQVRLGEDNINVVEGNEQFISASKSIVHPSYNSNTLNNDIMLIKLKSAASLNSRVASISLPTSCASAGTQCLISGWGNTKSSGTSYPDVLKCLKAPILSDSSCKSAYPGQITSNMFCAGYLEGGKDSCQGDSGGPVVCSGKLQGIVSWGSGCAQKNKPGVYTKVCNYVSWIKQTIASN
The experiment in a line: MSD specificity profiling, coated protein. As to the method: as §1

The target in another test is T3, RNase B (cow) (cow, UniProt P61823 27-150).
T3 sequence (looked up): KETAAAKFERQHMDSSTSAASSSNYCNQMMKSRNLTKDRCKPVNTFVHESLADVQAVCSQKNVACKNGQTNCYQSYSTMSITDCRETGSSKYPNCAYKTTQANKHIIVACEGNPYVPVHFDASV
Briefly: MSD specificity profiling, coated protein. The method, then:
as §1

In a further test the target is T4, RNase A (cow) (cow, UniProt P61823 27-150).
T4 sequence (looked up): T3 sequence (looked up)
Briefly: MSD specificity profiling, coated protein. As to the method:
as §1

Another test has as its target T5, human M-CSF (human, UniProt P09603 33-255, limits assumed).
T5 construct: also called M-CSF (human); CSF-1
T5 sequence: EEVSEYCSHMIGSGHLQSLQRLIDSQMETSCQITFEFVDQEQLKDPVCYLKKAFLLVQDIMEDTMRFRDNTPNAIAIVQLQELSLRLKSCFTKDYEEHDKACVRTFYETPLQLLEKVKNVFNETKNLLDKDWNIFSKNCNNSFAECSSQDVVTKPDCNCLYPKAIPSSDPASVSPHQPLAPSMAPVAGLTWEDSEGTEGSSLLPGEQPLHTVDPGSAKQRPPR
Briefly: MSD specificity profiling, coated protein, Camille at 100 nM. The method, then: as §1

For a further test, the target named is Serum albumin (human) (human, UniProt P02768 25-609). The test is described as above. The method, then:
as §1

In a further test the target is Transferrin (bovine) (bovine, UniProt Q29443 20-704). The test is described as above. The method, then:
as §1

The target in a further test is Lysozyme (chicken) (chicken, UniProt P00698 19-147). Described as above. The method, then:
as §1

Test [3] has as its target Cell surface receptor 3 (human) (human). The test is described as above. As to the method:
as §1

For the next test, the target named is Pepsinogen (pork) (pork, UniProt P00791 16-385). Described as above. As to the method:
as §1

For test [4], the target named is Trypsin inhibitor (Soybean) (Soybean). Described as above. The method, then:
as §1

Test [5] concerns the target T1, Cytochrome c (cow). The test is described as above. As to the method:
as §1

The target of a further test is Myoglobin (horse) (horse, UniProt P68082 2-154). The description is as above. The method, then: as §1
Sequence of Myoglobin (horse) (P68082 2-154 limits assumed): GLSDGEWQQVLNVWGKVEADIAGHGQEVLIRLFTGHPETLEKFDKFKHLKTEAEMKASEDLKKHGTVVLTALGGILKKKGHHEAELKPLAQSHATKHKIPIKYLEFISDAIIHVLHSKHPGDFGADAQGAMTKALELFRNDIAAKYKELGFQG
Another test has as its target T6, Lectin (Lens culinaris) (Lens culinaris, UniProt P02870 31-210; P02870 218-269, limits assumed).
T6 sequence (looked up) 1: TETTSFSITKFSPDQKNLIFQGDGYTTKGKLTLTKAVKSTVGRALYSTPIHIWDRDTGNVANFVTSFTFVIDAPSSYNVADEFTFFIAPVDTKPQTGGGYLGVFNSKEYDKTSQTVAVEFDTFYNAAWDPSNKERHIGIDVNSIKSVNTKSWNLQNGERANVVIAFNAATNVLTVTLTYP
T6 sequence (looked up) 2: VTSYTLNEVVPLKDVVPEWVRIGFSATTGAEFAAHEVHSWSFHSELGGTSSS
The description is as above. The method, then: as §1

Test [6] has as its target T2, Trypsinogen (cow). Described as above. The method, then: as §1
Test [7] has as its target T7, Recombinant cynomolgus monkey sgM-CSF (cynomolgus (Macaca fascicularis), UniProt P09603 33-255 (human entry), limits assumed).
T7 construct: used also where only 'cynomolgus M-CSF' is printed (ELISA result, SET); also called cynomolgus sgM-CSF; cyno sgM-CSF
T7 chain: T5 sequence with V186M, E192D
The experiment in a line: Table 12 summary, criterion Binding, Cynomolgus M-CSF; assay and antibody format not named there.

Residue numbers refer to the chain shown, from its start.

One may read the Kd as the equilibrium constant for the complex coming apart.

T1 sequence (P62894 2-105 limits assumed): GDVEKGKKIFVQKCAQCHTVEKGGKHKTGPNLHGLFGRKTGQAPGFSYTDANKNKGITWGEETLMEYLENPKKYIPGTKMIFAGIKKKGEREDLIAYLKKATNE
Sequence of Trypsin inhibitor (Soybean) (Soybean) (P01070 25-205): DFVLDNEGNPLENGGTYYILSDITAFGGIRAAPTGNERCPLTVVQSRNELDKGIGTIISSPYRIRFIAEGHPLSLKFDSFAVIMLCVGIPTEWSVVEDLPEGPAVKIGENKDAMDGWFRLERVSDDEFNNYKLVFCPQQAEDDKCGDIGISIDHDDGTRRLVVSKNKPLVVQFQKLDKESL
Sequence of Pepsinogen (pork) (P00791 16-385): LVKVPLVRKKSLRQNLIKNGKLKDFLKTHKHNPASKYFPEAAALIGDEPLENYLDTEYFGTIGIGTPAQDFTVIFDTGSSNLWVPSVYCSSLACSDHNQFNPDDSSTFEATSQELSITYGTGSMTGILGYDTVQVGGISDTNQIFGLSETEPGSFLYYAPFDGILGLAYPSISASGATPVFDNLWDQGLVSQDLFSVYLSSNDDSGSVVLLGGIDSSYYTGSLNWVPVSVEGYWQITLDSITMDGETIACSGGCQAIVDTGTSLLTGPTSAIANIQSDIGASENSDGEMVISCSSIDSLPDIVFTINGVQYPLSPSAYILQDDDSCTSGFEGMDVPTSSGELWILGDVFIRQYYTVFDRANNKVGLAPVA
Sequence of Transferrin (bovine) (Q29443 20-704 limits assumed): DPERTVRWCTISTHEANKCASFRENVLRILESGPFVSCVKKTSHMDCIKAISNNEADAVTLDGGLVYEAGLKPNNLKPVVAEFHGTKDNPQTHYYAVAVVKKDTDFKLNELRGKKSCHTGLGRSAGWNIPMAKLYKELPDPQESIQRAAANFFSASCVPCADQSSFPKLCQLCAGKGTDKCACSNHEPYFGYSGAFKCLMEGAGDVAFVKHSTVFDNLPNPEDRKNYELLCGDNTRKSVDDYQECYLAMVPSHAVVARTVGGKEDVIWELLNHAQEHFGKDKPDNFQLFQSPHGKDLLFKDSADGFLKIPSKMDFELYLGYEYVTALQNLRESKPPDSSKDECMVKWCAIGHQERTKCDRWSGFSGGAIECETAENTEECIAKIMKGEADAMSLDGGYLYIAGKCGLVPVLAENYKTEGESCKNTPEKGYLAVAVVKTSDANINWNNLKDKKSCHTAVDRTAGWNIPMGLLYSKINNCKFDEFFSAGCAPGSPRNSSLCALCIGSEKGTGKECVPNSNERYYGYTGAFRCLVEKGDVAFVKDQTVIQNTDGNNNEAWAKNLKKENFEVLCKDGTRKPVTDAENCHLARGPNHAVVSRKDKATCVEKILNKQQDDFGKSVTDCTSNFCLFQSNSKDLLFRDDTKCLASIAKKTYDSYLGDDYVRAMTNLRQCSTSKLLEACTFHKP
Sequence of Lysozyme (chicken) (P00698 19-147): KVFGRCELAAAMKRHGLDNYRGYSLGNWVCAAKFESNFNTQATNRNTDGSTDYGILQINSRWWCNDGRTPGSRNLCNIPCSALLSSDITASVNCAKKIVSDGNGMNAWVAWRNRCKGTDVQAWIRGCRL

B1: Camille (format not stated) (antibody, V domains shown)
VH: QVQLQQSGPGLVKPSQTLSLTCAISGESVSTSSAAWNWIRQSPSRGLEWLGRTYYRSKWKHEYAVSVKSRITINPDTSKNQFSLQLNSVTPEDTAVYYCARDRYYYSAFDYWGQGTLVTVSS
VL: QSALTQPASVSGSPGQSITISCTGTSSDVGGYNSVSWYQQHPGKAPKLLIYAVSNRPSGVSNRFSGSKSGNTASLTISGLQAEDEADYYCASYDERFTRVFGGGTKLTVLG
notes: also called Antibody Camille
As for B1, the binding result with Cytochrome c (cow) [1] is “no binding (tested: 100 nM and 10 nM antibody)”; in the test with Trypsinogen (cow) [2], “no binding (tested: 100 nM and 10 nM antibody)”; in the test with RNase B (cow), “no binding (tested: 100 nM and 10 nM antibody)”; with RNase A (cow) it was “no binding (tested: 100 nM and 10 nM antibody)”. In addition, the “signal normalized to reference antibody MOR03207” value in the test with human M-CSF turned out to be 24 ratio; with Serum albumin (human) it was 1 ratio; with Transferrin (bovine), 1 ratio; in the test with Lysozyme (chicken) it was 0 ratio; in test [3], 1 ratio; in the test with Pepsinogen (pork), 1 ratio. Also, the “signal normalized to reference antibody MOR03207” value (in [4]; with Cytochrome c (cow) [5]; with Myoglobin (horse); with Lectin (Lens culinaris); in the test with Trypsinogen (cow) [6]) was 1 ratio each time. Further, the dissociation constant (Kd) in test [7] turned out to be 0.025 nM.
